Values quoted from earlier work, collected in article PMC5760685.

Target: CRHR1 (UniProt P34998)
Chain of UniProt P34998 (P34998 24-415): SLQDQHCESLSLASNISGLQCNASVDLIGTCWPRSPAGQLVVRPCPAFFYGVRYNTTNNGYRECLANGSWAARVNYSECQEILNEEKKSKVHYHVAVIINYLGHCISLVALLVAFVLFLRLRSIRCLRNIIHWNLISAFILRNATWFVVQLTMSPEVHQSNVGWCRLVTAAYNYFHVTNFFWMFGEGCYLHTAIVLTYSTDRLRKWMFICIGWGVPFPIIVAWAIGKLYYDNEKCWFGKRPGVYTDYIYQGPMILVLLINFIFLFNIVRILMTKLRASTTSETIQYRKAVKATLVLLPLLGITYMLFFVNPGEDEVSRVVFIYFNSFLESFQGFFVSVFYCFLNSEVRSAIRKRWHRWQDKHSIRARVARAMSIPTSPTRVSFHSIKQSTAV

Kd: 3 nM
Substance: CRH (from UniProt P06850)
